Test results from patent US20250179160A1.

Columns and labels:
[1] = biological target: recombinant human mature Factor D (human) (UniProt P00746); assay: ELISA: antibody titrated 3-fold from 3 ug/ml on plate coated with 1 ug/ml recombinant human mature Factor D; HRP anti-mouse, rat or human secondary; OD450
[2] = biological target: recombinant human Pro-Factor D (human) (UniProt P00746); assay: ELISA: antibody titrated 3-fold from 3 ug/ml on plate coated with 1 ug/ml recombinant human pro-Factor D; HRP anti-mouse, rat or human secondary; OD450

MAB18241 (antibody) gave an EC50 (read off the curve) [1] of 0.04 µg/mL and an EC50 (read off the curve) [2] of 0.02 µg/mL.
